Like-named read-outs stand apart in the source and are kept apart here.
What was measured:
SEC [1] = biological target: the molecule itself; test: SEC
SEC [2] = biological target: the molecule itself; test: SEC; remark: listed apart in the source

B1: Mycobacterium smegmatis guanosine 5'-monophosphate reductase (Msm GMPR), product of the guaB1 gene (enzyme, UniProt A0QYE8 1-478, looked up)
chain: MRFLDGHTPAYDLTYNDVFVVPGRSDVASRFDVDLSTVDGSGTTIPVVVANMTAVAGRRMAETVARRGGIVVLPQDLPITAVSETVDFVKSRDLVVDTPVTLSPEDSVSDANALLHKRAHGAAVVVFEGRPIGLVTEANCAGVDRFARVRDIALSDFVTAPVGTDPREVFDLLEHAPIDVAVMTAPDGTLAGVLTRTGAIRAGIYTPAVDAKGRLRIAAAVGINGDVGAKAQALAEAGADLLVIDTAHGHQAKMLDAIKAVASLDLGLPLVAGNVVSAEGTRDLIEAGASIVKVGVGPGAMCTTRMMTGVGRPQFSAVVECAAAARQLGGHVWADGGVRHPRDVALALAAGASNVMIGSWFAGTYESPGDLLFDRDDRPYKESYGMASKRAVAARTAGDSSFDRARKGLFEEGISTSRMSLDPARGGVEDLLDHITSGVRSTCTYVGAANLPELHEKVVLGVQSAAGFAEGHPLPAGW
stoichiometry N (SEC [1]): 4 | stoichiometry N (SEC [2]): 8

Reference: doi:10.1101/2021.08.05.455185 (bioRxiv, 2021)
